Laboratory results: paper PMC12216424

B1: PS DNA1 (XNA)
DNA: GCGACTCGGTTCTTGCCTAAG
modifications: all 20 linkages phosphorothioate
B2: 12a-crRNA (structured_RNA)
RNA: UAAUUUCUACUAAGUGUAGAUGGGGUUUGAGGUCCAUUACA

How the values were obtained:
[1] = molecular target: LbCas12a (UniProt A0A5S8WF58 1-1228); test: thermal shift
[2] = molecular target: LbCas12a (cryo-EM, assembled with crRNA) (UniProt A0A5S8WF58 1-1228); test: cryo-EM structure

Binder | binding result [1] | binding result [2]
B1 | binds | –
B2 | – | binds
